B1: Tyrosine-protein kinase CSK (Homo sapiens), P41240 (parent)
chain: MSAIQAAWPSGTECIAKYNFHGTAEQDLPFCKGDVLTIVAVTKDPNWYKAKNKVGREGIIPANYVQKREGVKAGTKLSLMPWFHGKITREQAERLLYPPETGLFLVRESTNYPGDYTLCVSCDGKVEHYRIMYHASKLSIDEEVYFENLMQLVEHYTSDADGLCTRLIKPKVMEGTVAAQDEFYRSGWALNMKELKLLQTIGKGEFGDVMLGDYRGNKVAVKCIKNDATAQAFLAEASVMTQLRHSNLVQLLGVIVEEKGGLYIVTEYMAKGSLVDYLRSRGRSVLGGDCLLKFSLDVCEAMEYLEGNNFVHRDLAARNVLVSEDNVAKVSDFGLTKEASSTQDTGKLPVKWTAPEALREKKFSTKSDVWSFGILLWEIYSFGRVPYPRIPLKDVVPRVEKGYKMDAPDGCPPAVYEVMKNCWHLDAAMRPSFLQLREQLEHIKTHELHL

Variants of B1 are the subject of the assay. The conditions noted are these: with igf1r_human IGF1R.
In the case of S109C, the “effect of a mutation on the interaction” value is on record as “disrupting interaction strength”.
